# Starred links: 1 amine or outer side, 2 acyl side, 3 side chain; linkers in the order of their positions; H or OH if unused. Non-standard residues stand in square brackets, D forms with d. Groups on a side chain read outwards from the residue. No end group written: not given here. *: point of attachment. C18 diacid = O=C(O)CCCCCCCCCCCCCCCCC(=O)*; γGlu = O=C(O)[C@H](CCC(=O)[*:2])N[*:1]; Palmitoyl = CCCCCCCCCCCCCCCC(=O)*; AEEA = NCCOCCOCC(=O)O; Aib = CC(C)(N)C(=O)O
# Target: human corticotropin-releasing factor 2α (CRF2 α receptor) (human), Q13324
# Experiment: cell-based or functional assay
# Sequence of human corticotropin-releasing factor 2α (CRF2 α receptor) (human), Q13324 (Q13324 20-411): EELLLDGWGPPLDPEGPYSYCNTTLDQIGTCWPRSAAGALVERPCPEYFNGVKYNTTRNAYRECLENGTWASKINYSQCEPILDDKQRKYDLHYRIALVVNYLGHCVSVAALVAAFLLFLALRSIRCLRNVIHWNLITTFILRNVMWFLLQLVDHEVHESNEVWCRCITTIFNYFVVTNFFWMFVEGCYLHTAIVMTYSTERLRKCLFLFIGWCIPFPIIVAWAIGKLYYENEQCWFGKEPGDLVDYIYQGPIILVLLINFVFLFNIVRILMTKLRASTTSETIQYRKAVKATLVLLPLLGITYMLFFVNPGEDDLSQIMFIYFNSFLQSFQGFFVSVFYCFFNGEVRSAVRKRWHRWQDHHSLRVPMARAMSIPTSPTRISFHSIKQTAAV
Binder,"EC50 [nM], 0% HSA [nM]","EC50 [nM], 0.1% HSA [nM]"
IVLSLD[dV]PIKLK([AEEA-AEEA-γGlu-C18 diacid])QILLKQERQK[Aib]QRQKAEKNKQILAQV-NH2 (N-terminus assumed; SMILES CC[C@H](C)[C@H](N)C(=O)N[C@H](C(=O)N[C@@H](CC(C)C)C(=O)N[C@@H](CO)C(=O)N[C@@H](CC(C)C)C(=O)N[C@@H](CC(=O)O)C(=O)N[C@@H](C(=O)N1CCC[C@H]1C(=O)N[C@H](C(=O)N[C@@H](CCCCN)C(=O)N[C@@H](CC(C)C)C(=O)N[C@@H](CCCCNC(=O)COCCOCCNC(=O)COCCOCCNC(=O)CC[C@H](NC(=O)CCCCCCCCCCCCCCCCC(=O)O)C(=O)O)C(=O)N[C@@H](CCC(N)=O)C(=O)N[C@H](C(=O)N[C@@H](CC(C)C)C(=O)N[C@@H](CC(C)C)C(=O)N[C@@H](CCCCN)C(=O)N[C@@H](CCC(N)=O)C(=O)N[C@@H](CCC(=O)O)C(=O)N[C@@H](CCCNC(=N)N)C(=O)N[C@@H](CCC(N)=O)C(=O)N[C@@H](CCCCN)C(=O)NC(C)(C)C(=O)N[C@@H](CCC(N)=O)C(=O)N[C@@H](CCCNC(=N)N)C(=O)N[C@@H](CCC(N)=O)C(=O)N[C@@H](CCCCN)C(=O)N[C@@H](C)C(=O)N[C@@H](CCC(=O)O)C(=O)N[C@@H](CCCCN)C(=O)N[C@@H](CC(N)=O)C(=O)N[C@@H](CCCCN)C(=O)N[C@@H](CCC(N)=O)C(=O)N[C@H](C(=O)N[C@@H](CC(C)C)C(=O)N[C@@H](C)C(=O)N[C@@H](CCC(N)=O)C(=O)N[C@H](C(N)=O)C(C)C)[C@@H](C)CC)[C@@H](C)CC)[C@@H](C)CC)C(C)C)C(C)C) [SEQ ID NO: 118],0.04,2.13
FTLSLDVPTKIK([γGlu-Palmitoyl])QKLLKQEKQKKQRQKAKTNAQILAQV-NH2 (N-terminus assumed; SMILES CCCCCCCCCCCCCCCC(=O)N[C@@H](CCC(=O)NCCCC[C@H](NC(=O)[C@@H](NC(=O)[C@H](CCCCN)NC(=O)[C@@H](NC(=O)[C@@H]1CCCN1C(=O)[C@@H](NC(=O)[C@H](CC(=O)O)NC(=O)[C@H](CC(C)C)NC(=O)[C@H](CO)NC(=O)[C@H](CC(C)C)NC(=O)[C@@H](NC(=O)[C@@H](N)Cc1ccccc1)[C@@H](C)O)C(C)C)[C@@H](C)O)[C@@H](C)CC)C(=O)N[C@@H](CCC(N)=O)C(=O)N[C@@H](CCCCN)C(=O)N[C@@H](CC(C)C)C(=O)N[C@@H](CC(C)C)C(=O)N[C@@H](CCCCN)C(=O)N[C@@H](CCC(N)=O)C(=O)N[C@@H](CCC(=O)O)C(=O)N[C@@H](CCCCN)C(=O)N[C@@H](CCC(N)=O)C(=O)N[C@@H](CCCCN)C(=O)N[C@@H](CCCCN)C(=O)N[C@@H](CCC(N)=O)C(=O)N[C@@H](CCCNC(=N)N)C(=O)N[C@@H](CCC(N)=O)C(=O)N[C@@H](CCCCN)C(=O)N[C@@H](C)C(=O)N[C@@H](CCCCN)C(=O)N[C@H](C(=O)N[C@@H](CC(N)=O)C(=O)N[C@@H](C)C(=O)N[C@@H](CCC(N)=O)C(=O)N[C@H](C(=O)N[C@@H](CC(C)C)C(=O)N[C@@H](C)C(=O)N[C@@H](CCC(N)=O)C(=O)N[C@H](C(N)=O)C(C)C)[C@@H](C)CC)[C@@H](C)O)C(=O)O) [SEQ ID NO: 11],0.02,–
IVLSLDVPIKLK([AEEA-AEEA-γGlu-C18 diacid])QILLKQERQKKQREQAEKNKQILEQV-NH2 (N-terminus assumed; SMILES CC[C@H](C)[C@H](N)C(=O)N[C@H](C(=O)N[C@@H](CC(C)C)C(=O)N[C@@H](CO)C(=O)N[C@@H](CC(C)C)C(=O)N[C@@H](CC(=O)O)C(=O)N[C@H](C(=O)N1CCC[C@H]1C(=O)N[C@H](C(=O)N[C@@H](CCCCN)C(=O)N[C@@H](CC(C)C)C(=O)N[C@@H](CCCCNC(=O)COCCOCCNC(=O)COCCOCCNC(=O)CC[C@H](NC(=O)CCCCCCCCCCCCCCCCC(=O)O)C(=O)O)C(=O)N[C@@H](CCC(N)=O)C(=O)N[C@H](C(=O)N[C@@H](CC(C)C)C(=O)N[C@@H](CC(C)C)C(=O)N[C@@H](CCCCN)C(=O)N[C@@H](CCC(N)=O)C(=O)N[C@@H](CCC(=O)O)C(=O)N[C@@H](CCCNC(=N)N)C(=O)N[C@@H](CCC(N)=O)C(=O)N[C@@H](CCCCN)C(=O)N[C@@H](CCCCN)C(=O)N[C@@H](CCC(N)=O)C(=O)N[C@@H](CCCNC(=N)N)C(=O)N[C@@H](CCC(=O)O)C(=O)N[C@@H](CCC(N)=O)C(=O)N[C@@H](C)C(=O)N[C@@H](CCC(=O)O)C(=O)N[C@@H](CCCCN)C(=O)N[C@@H](CC(N)=O)C(=O)N[C@@H](CCCCN)C(=O)N[C@@H](CCC(N)=O)C(=O)N[C@H](C(=O)N[C@@H](CC(C)C)C(=O)N[C@@H](CCC(=O)O)C(=O)N[C@@H](CCC(N)=O)C(=O)N[C@H](C(N)=O)C(C)C)[C@@H](C)CC)[C@@H](C)CC)[C@@H](C)CC)C(C)C)C(C)C) [SEQ ID NO: 120],1.27,61.1
IVLSLDVPIKLK([AEEA-AEEA-γGlu-C18 diacid])QILLKQERQKK[Aib]RQKAEKNKQILAQV-NH2 (N-terminus assumed; SMILES CC[C@H](C)[C@H](N)C(=O)N[C@H](C(=O)N[C@@H](CC(C)C)C(=O)N[C@@H](CO)C(=O)N[C@@H](CC(C)C)C(=O)N[C@@H](CC(=O)O)C(=O)N[C@H](C(=O)N1CCC[C@H]1C(=O)N[C@H](C(=O)N[C@@H](CCCCN)C(=O)N[C@@H](CC(C)C)C(=O)N[C@@H](CCCCNC(=O)COCCOCCNC(=O)COCCOCCNC(=O)CC[C@H](NC(=O)CCCCCCCCCCCCCCCCC(=O)O)C(=O)O)C(=O)N[C@@H](CCC(N)=O)C(=O)N[C@H](C(=O)N[C@@H](CC(C)C)C(=O)N[C@@H](CC(C)C)C(=O)N[C@@H](CCCCN)C(=O)N[C@@H](CCC(N)=O)C(=O)N[C@@H](CCC(=O)O)C(=O)N[C@@H](CCCNC(=N)N)C(=O)N[C@@H](CCC(N)=O)C(=O)N[C@@H](CCCCN)C(=O)N[C@@H](CCCCN)C(=O)NC(C)(C)C(=O)N[C@@H](CCCNC(=N)N)C(=O)N[C@@H](CCC(N)=O)C(=O)N[C@@H](CCCCN)C(=O)N[C@@H](C)C(=O)N[C@@H](CCC(=O)O)C(=O)N[C@@H](CCCCN)C(=O)N[C@@H](CC(N)=O)C(=O)N[C@@H](CCCCN)C(=O)N[C@@H](CCC(N)=O)C(=O)N[C@H](C(=O)N[C@@H](CC(C)C)C(=O)N[C@@H](C)C(=O)N[C@@H](CCC(N)=O)C(=O)N[C@H](C(N)=O)C(C)C)[C@@H](C)CC)[C@@H](C)CC)[C@@H](C)CC)C(C)C)C(C)C) [SEQ ID NO: 119],0.13,4.97
IVLSLDVPIKLK([AEEA-AEEA-γGlu-C18 diacid])QILLKQERQK[Aib]QRQQAEKNKQILAQV-NH2 (N-terminus assumed; SMILES CC[C@H](C)[C@H](N)C(=O)N[C@H](C(=O)N[C@@H](CC(C)C)C(=O)N[C@@H](CO)C(=O)N[C@@H](CC(C)C)C(=O)N[C@@H](CC(=O)O)C(=O)N[C@H](C(=O)N1CCC[C@H]1C(=O)N[C@H](C(=O)N[C@@H](CCCCN)C(=O)N[C@@H](CC(C)C)C(=O)N[C@@H](CCCCNC(=O)COCCOCCNC(=O)COCCOCCNC(=O)CC[C@H](NC(=O)CCCCCCCCCCCCCCCCC(=O)O)C(=O)O)C(=O)N[C@@H](CCC(N)=O)C(=O)N[C@H](C(=O)N[C@@H](CC(C)C)C(=O)N[C@@H](CC(C)C)C(=O)N[C@@H](CCCCN)C(=O)N[C@@H](CCC(N)=O)C(=O)N[C@@H](CCC(=O)O)C(=O)N[C@@H](CCCNC(=N)N)C(=O)N[C@@H](CCC(N)=O)C(=O)N[C@@H](CCCCN)C(=O)NC(C)(C)C(=O)N[C@@H](CCC(N)=O)C(=O)N[C@@H](CCCNC(=N)N)C(=O)N[C@@H](CCC(N)=O)C(=O)N[C@@H](CCC(N)=O)C(=O)N[C@@H](C)C(=O)N[C@@H](CCC(=O)O)C(=O)N[C@@H](CCCCN)C(=O)N[C@@H](CC(N)=O)C(=O)N[C@@H](CCCCN)C(=O)N[C@@H](CCC(N)=O)C(=O)N[C@H](C(=O)N[C@@H](CC(C)C)C(=O)N[C@@H](C)C(=O)N[C@@H](CCC(N)=O)C(=O)N[C@H](C(N)=O)C(C)C)[C@@H](C)CC)[C@@H](C)CC)[C@@H](C)CC)C(C)C)C(C)C) [SEQ ID NO: 117],0.11,–
IVLSLDVPIKLK([AEEA-AEEA-γGlu-C18 diacid])QILLKQERQK[Aib]QREKAEKNKQILAQV-NH2 (N-terminus assumed; SMILES CC[C@H](C)[C@H](N)C(=O)N[C@H](C(=O)N[C@@H](CC(C)C)C(=O)N[C@@H](CO)C(=O)N[C@@H](CC(C)C)C(=O)N[C@@H](CC(=O)O)C(=O)N[C@H](C(=O)N1CCC[C@H]1C(=O)N[C@H](C(=O)N[C@@H](CCCCN)C(=O)N[C@@H](CC(C)C)C(=O)N[C@@H](CCCCNC(=O)COCCOCCNC(=O)COCCOCCNC(=O)CC[C@H](NC(=O)CCCCCCCCCCCCCCCCC(=O)O)C(=O)O)C(=O)N[C@@H](CCC(N)=O)C(=O)N[C@H](C(=O)N[C@@H](CC(C)C)C(=O)N[C@@H](CC(C)C)C(=O)N[C@@H](CCCCN)C(=O)N[C@@H](CCC(N)=O)C(=O)N[C@@H](CCC(=O)O)C(=O)N[C@@H](CCCNC(=N)N)C(=O)N[C@@H](CCC(N)=O)C(=O)N[C@@H](CCCCN)C(=O)NC(C)(C)C(=O)N[C@@H](CCC(N)=O)C(=O)N[C@@H](CCCNC(=N)N)C(=O)N[C@@H](CCC(=O)O)C(=O)N[C@@H](CCCCN)C(=O)N[C@@H](C)C(=O)N[C@@H](CCC(=O)O)C(=O)N[C@@H](CCCCN)C(=O)N[C@@H](CC(N)=O)C(=O)N[C@@H](CCCCN)C(=O)N[C@@H](CCC(N)=O)C(=O)N[C@H](C(=O)N[C@@H](CC(C)C)C(=O)N[C@@H](C)C(=O)N[C@@H](CCC(N)=O)C(=O)N[C@H](C(N)=O)C(C)C)[C@@H](C)CC)[C@@H](C)CC)[C@@H](C)CC)C(C)C)C(C)C) [SEQ ID NO: 116],0.7,–
